These results are taken from the supplement of paper PMC10567573.

B1: INTS3 (parent)
chain: FHPIKETVVEEPVDITPYLDQLDE
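Note: lentivirally expressed fusions sorted by FACS into six bins by GFP to DsRed ratio, PSI derived from sequencing read proportions per bin multiplied by bin number.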

In the data set the parent is B1. The data set can be described thus: protein stability index of a GFP-peptide fusion (GPS, HEK-293T) (PSI 1-6); higher = more stable. The following applies: c terminus: a fixed tail appended.
With FHPIKETVVEEPVDITHYLDQLDE, the protein stability index was found to be 3.63.

As to FHPIKETVVEEPVDITEYLDQLDE, the protein stability index amounted to 3.89. Consider FHPIKETVVEEPVDITRYLDQLDE, for which the protein stability index was determined as 2.39. In the case of FHPIKETVVEEPVDITNYLDQLDE it was 3.19; in that of FHPIKETVVEEPVDITFYLDQLDE, 3.08; in that of FHPIKETVVEEPVDITMYLDQLDE, 3.17. In the case of FHPIKETVVEEPVDITDYLDQLDE it was 3.58. In the case of FHPIKETVVEEPVDITLYLDQLDE it was 2.92; in that of FHPIKETVVEEPVDITWYLDQLDE, 3.61.

On to FHPIKETVVEEPVDITQYLDQLDE, for which the protein stability index is 3.52. In the case of FHPIKETVVEEPVDITIYLDQLDE it was 2.49. As for FHPIKETVVEEPVDITGYLDQLDE, the figure is 3.46. As for FHPIKETVVEEPVDITSYLDQLDE, the figure is 3.12; as for FHPIKETVVEEPVDITVYLDQLDE, 3.21; as for FHPIKETVVEEPVDITYYLDQLDE, 3.75. Turning to FHPIKETVVEEPVDITKYLDQLDE, the protein stability index turned out to be 2.88. As for FHPIKETVVEEPVDITCYLDQLDE, the figure is 3.17; as for FHPIKETVVEEPVDITTYLDQLDE, 2.94; as for FHPIKETVVEEPVDITAYLDQLDE, 3.25. Consider FHPIKETVVEEPVDITPYEDQLDE, for which the protein stability index turned out to be 4.34.

Regarding FHPIKETVVEEPVDITPYYDQLDE, the protein stability index came out at 3.2. As for FHPIKETVVEEPVDITPYKDQLDE, the figure is 3.24. In the case of FHPIKETVVEEPVDITPYVDQLDE it was 4.03. As for FHPIKETVVEEPVDITPYGDQLDE, the figure is 3.32.

On to FHPIKETVVEEPVDITPYQDQLDE, for which the protein stability index was determined as 2.72. Regarding FHPIKETVVEEPVDITPYMDQLDE, the protein stability index is 2.86. For FHPIKETVVEEPVDITPYNDQLDE, the protein stability index was determined as 3.66. Turning to FHPIKETVVEEPVDITPYTDQLDE, the protein stability index stood at 3.31. In the case of FHPIKETVVEEPVDITPYCDQLDE it was 3.21; in that of FHPIKETVVEEPVDITPYSDQLDE, 3.98.

FHPIKETVVEEPVDITPYWDQLDE: the protein stability index is 2.56. In the case of FHPIKETVVEEPVDITPYFDQLDE it was 3.02; in that of FHPIKETVVEEPVDITPYADQLDE, 3.21; in that of FHPIKETVVEEPVDITPYPDQLDE, 3.88. In the case of FHPIKETVVEEPVDITPYRDQLDE it was 3.14. In the case of FHPIKETVVEEPVDITPYDDQLDE it was 3.24; in that of FHPIKETVVEEPVDITPYHDQLDE, 3.18; in that of FHPIKETVVEEPVDITPYIDQLDE, 3.12.

With FHPIKETVVEEPVDIQPYLDQLDE, the protein stability index worked out at 3.79. With FHPIKETVVEEPVDIWPYLDQLDE, the protein stability index was determined as 2.33. As for FHPIKETVVEEPVDIRPYLDQLDE, the figure is 2.84.

In the case of FHPIKETVVEEPVDISPYLDQLDE, the protein stability index was determined as 3.32. As for FHPIKETVVEEPVDIYPYLDQLDE, the figure is 2.77; as for FHPIKETVVEEPVDIPPYLDQLDE, 3; as for FHPIKETVVEEPVDIVPYLDQLDE, 3.14.

As for FHPIKETVVEEPVDITPVLDQLDE, the protein stability index is 3.87.

Regarding FHPIKETVVEEPVDITPTLDQLDE, the protein stability index is 3.71. In the case of FHPIKETVVEEPVDITPGLDQLDE it was 3.69. In the case of FHPIKETVVEEPVDITPPLDQLDE it was 3.23.

Regarding FHPIKETVVEEPVDITPKLDQLDE, the protein stability index stood at 3.77.

For FHPIKETVVEEPVDITPWLDQLDE, the protein stability index was 3.11.

As for FHPIKETVVEEPVDITPLLDQLDE, the protein stability index was 3.88.

As to FHPIKETVVEEPVDITPELDQLDE, the protein stability index stood at 3.36. In the case of FHPIKETVVEEPVDITPALDQLDE it was 3.58.

As for FHPIKETVVEEPVDITPMLDQLDE, the protein stability index was found to be 3.58. As to FHPIKETVVEEPVDITPDLDQLDE, the protein stability index was 3.43. Turning to FHPIKETVVEEPVDITPHLDQLDE, the protein stability index stood at 3.5. In the case of FHPIKETVVEEPVDITPCLDQLDE it was 3.47; in that of FHPIKETVVEEPVDITPQLDQLDE, 3.95; in that of FHPIKETVVEEPVDITPFLDQLDE, 3.79. In the case of FHPIKETVVEEPVDITPRLDQLDE it was 3.58. For FHPIKETVVEEPVDITPNLDQLDE, the protein stability index is 3.72.

On to FHPIKETVVEEPVDITPSLDQLDE, for which the protein stability index is 3.77. In the case of FHPIKETVVEEPVDITPILDQLDE it was 2.7; in that of FHPIKETVVEEPVDITPYLDHLDE, 3.26; in that of FHPIKETVVEEPVDITPYLDILDE, 3.26. With FHPIKETVVEEPVDITPYLDELDE, the protein stability index amounted to 3.62. As for FHPIKETVVEEPVDITPYLDKLDE, the figure is 3.05. On to FHPIKETVVEEPVDITPYLDDLDE, for which the protein stability index was 3.51.

For the variant FHPIKETVVEEPVDITPYLDLLDE, the protein stability index stood at 3.05. As for FHPIKETVVEEPVDITPYLDALDE, the figure is 3.73.

In the case of FHPIKETVVEEPVDITPYLDCLDE, the protein stability index came out at 2.55. In the case of FHPIKETVVEEPVDITPYLDGLDE it was 3.56; in that of FHPIKETVVEEPVDITPYLDMLDE, 3.42. In the case of FHPIKETVVEEPVDITPYLDFLDE it was 2.55.

On to FHPIKETVVEEPVDITPYLEQLDE, for which the protein stability index was 3.48. As for FHPIKETVVEEPVDITPYLPQLDE, the figure is 2; as for FHPIKETVVEEPVDITPYLWQLDE, 2.14. As for FHPIKETVVEEPVDITPYLKQLDE, the figure is 2.78; as for FHPIKETVVEEPVDITPYLVQLDE, 2.11. As for FHPIKETVVEEPVDITPYLYQLDE, the figure is 2.08. Turning to FHPIKETVVEEPVDITPYLNQLDE, the protein stability index is 2.94. As for FHPIKETVVEEPVDITPYLIQLDE, the figure is 2.35. As for FHPIKETVVEEPVDITPYLAQLDE, the figure is 3.11; as for FHPIKETVVEEPVDITPYLHQLDE, 3.

Regarding FHPIKETVVEEPVDITPYLQQLDE, the protein stability index was 2.41.

For FHPIKETVVEEPVDITPYLRQLDE, the protein stability index came out at 2.96. In the case of FHPIKETVVEEPVDITPYLLQLDE it was 2.28. In the case of FHPIKETVVEEPVDITPYLCQLDE it was 2.49. In the case of FHPIKETVVEEPVDITPYLMQLDE it was 2.02; in that of FHPIKETVVEEPVDITPYLTQLDE, 2.94. FHPIKETVVEEPVDITPYLFQLDE: the protein stability index came to 2.41. As for FHPIKETVVEEPVDITPYLGQLDE, the figure is 2.99; as for FHPIKETVVEEPVDITPYLSQLDE, 3.3.
